Test results as given in the supplement of paper PMC9112550, “Optimization of the antimicrobial peptide Bac7 by deep mutational scanning” (BMC Biology, 2022).

Each sequence was assayed on Escherichia coli TOP10 (assay: shrunken log2 fold change of peptide-encoding DNA abundance (4.5 h post-induction vs induction); higher = less antimicrobial activity (less host growth inhibition)). Conditions: time post-induction: 4.5 h; library: site-saturation at positions 5, 18, 19, 20.
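Further: peptides expressed intracellularly from a pBAD plasmid library in pooled LB shake-flask culture, induced with 0.3% L-arabinose, DNA abundance read by NGS, three biological replicates, DESeq2 with apeglm shrinkage.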

RRIRARPPRLPRPRPRPRCWPRP was tested. Which “shrunken log2 fold change” value did it give?
Its value is 0.601.

With RRIRARPPRLPRPRPRPRDHPRP as the sequence, how does the “shrunken log2 fold change” value read?
The value was 0.158.

Which “shrunken log2 fold change” value does the source give for RRIRARPPRLPRPRPRPRECPRP here?
The value was 0.804.

Which “shrunken log2 fold change” value does the source give for RRIRARPPRLPRPRPRPREIPRP here?
The value was 0.865.

How did the “shrunken log2 fold change” value turn out when RRIRARPPRLPRPRPRPRFKPRP was run?
The value was 0.122.

How did the “shrunken log2 fold change” value turn out when RRIRARPPRLPRPRPRPRGLPRP was run?
Its value is 0.628.

For RRIRARPPRLPRPRPRPRIEPRP, which “shrunken log2 fold change” value is on record?
Its value is 0.309.

With RRIRARPPRLPRPRPRPRIHPRP as the sequence, how does the “shrunken log2 fold change” value read?
The value was -0.145.

RRIRARPPRLPRPRPRPRIQPRP was tested. Which “shrunken log2 fold change” value did it give?
Its value is 0.505.

For RRIRARPPRLPRPRPRPRNVPRP, which “shrunken log2 fold change” value is on record?
Its value is 0.0957.

RRIRARPPRLPRPRPRPRQHPRP was tested. Which “shrunken log2 fold change” value did it give?
Its value is 0.278.

With RRIRARPPRLPRPRPRPRRMPRP as the sequence, how does the “shrunken log2 fold change” value read?
The value was 0.551.

With RRIRARPPRLPRPRPRPRVCPRP as the sequence, how does the “shrunken log2 fold change” value read?
Its value is 0.0904.

How did the “shrunken log2 fold change” value turn out when RRIRARPPRLPRPRPRPRVDPRP was run?
The value was 0.419.

RRIRARPPRLPRPRPRPRVPPRP was tested. Which “shrunken log2 fold change” value did it give?
Its value is 0.428.

With RRIRARPPRLPRPRPRPRVQPRP as the sequence, how does the “shrunken log2 fold change” value read?
The value was 0.359.

How did the “shrunken log2 fold change” value turn out when RRIRARPPRLPRPRPRPRWDPRP was run?
The value was 0.768.

With RRIRARPPRLPRPRPRPRWYPRP as the sequence, how does the “shrunken log2 fold change” value read?
Its value is -0.0331.

For RRIRARPPRLPRPRPRPRYCPRP, which “shrunken log2 fold change” value is on record?
Its value is -0.15.

Which “shrunken log2 fold change” value does the source give for RRIRARPPRLPRPRPRPRYVPRP here?
The value was -0.25.

For RRIRARPPRLPRPRPRPSAEPRP, which “shrunken log2 fold change” value is on record?
The value was 0.976.

For RRIRARPPRLPRPRPRPSDFPRP, which “shrunken log2 fold change” value is on record?
Its value is 0.0983.

Which “shrunken log2 fold change” value does the source give for RRIRARPPRLPRPRPRPSFWPRP here?
Its value is 0.354.

For RRIRARPPRLPRPRPRPSHLPRP, which “shrunken log2 fold change” value is on record?
The value was -0.41.

With RRIRARPPRLPRPRPRPSIGPRP as the sequence, how does the “shrunken log2 fold change” value read?
Its value is 0.111.

How did the “shrunken log2 fold change” value turn out when RRIRARPPRLPRPRPRPSIHPRP was run?
Its value is -0.233.

Which “shrunken log2 fold change” value does the source give for RRIRARPPRLPRPRPRPSINPRP here?
The value was -0.308.

RRIRARPPRLPRPRPRPSKQPRP was tested. Which “shrunken log2 fold change” value did it give?
The value was 0.0216.

Which “shrunken log2 fold change” value does the source give for RRIRARPPRLPRPRPRPSLQPRP here?
The value was 0.193.

Which “shrunken log2 fold change” value does the source give for RRIRARPPRLPRPRPRPSMHPRP here?
The value was 0.163.

Which “shrunken log2 fold change” value does the source give for RRIRARPPRLPRPRPRPSMIPRP here?
Its value is -0.128.

How did the “shrunken log2 fold change” value turn out when RRIRARPPRLPRPRPRPSMLPRP was run?
The value was 0.0741.

Which “shrunken log2 fold change” value does the source give for RRIRARPPRLPRPRPRPSNHPRP here?
Its value is -0.089.

Which “shrunken log2 fold change” value does the source give for RRIRARPPRLPRPRPRPSNLPRP here?
The value was -0.39.

With RRIRARPPRLPRPRPRPSQMPRP as the sequence, how does the “shrunken log2 fold change” value read?
Its value is 0.0732.

Which “shrunken log2 fold change” value does the source give for RRIRARPPRLPRPRPRPSRRPRP here?
Its value is 0.297.

For RRIRARPPRLPRPRPRPSSSPRP, which “shrunken log2 fold change” value is on record?
Its value is 0.185.

With RRIRARPPRLPRPRPRPSWWPRP as the sequence, how does the “shrunken log2 fold change” value read?
The value was 0.695.

Which “shrunken log2 fold change” value does the source give for RRIRARPPRLPRPRPRPSYEPRP here?
The value was -0.069.

Which “shrunken log2 fold change” value does the source give for RRIRARPPRLPRPRPRPSYHPRP here?
Its value is -0.255.

How did the “shrunken log2 fold change” value turn out when RRIRARPPRLPRPRPRPSYKPRP was run?
Its value is -0.305.

For RRIRARPPRLPRPRPRPTAVPRP, which “shrunken log2 fold change” value is on record?
The value was 0.873.

For RRIRARPPRLPRPRPRPTDCPRP, which “shrunken log2 fold change” value is on record?
The value was 0.0381.

RRIRARPPRLPRPRPRPTDQPRP was tested. Which “shrunken log2 fold change” value did it give?
The value was 0.918.

With RRIRARPPRLPRPRPRPTEKPRP as the sequence, how does the “shrunken log2 fold change” value read?
The value was 0.413.

Which “shrunken log2 fold change” value does the source give for RRIRARPPRLPRPRPRPTHVPRP here?
Its value is 0.813.

How did the “shrunken log2 fold change” value turn out when RRIRARPPRLPRPRPRPTKNPRP was run?
The value was 0.429.

Which “shrunken log2 fold change” value does the source give for RRIRARPPRLPRPRPRPTKYPRP here?
The value was -0.114.

With RRIRARPPRLPRPRPRPTLKPRP as the sequence, how does the “shrunken log2 fold change” value read?
Its value is 0.605.

RRIRARPPRLPRPRPRPTMGPRP was tested. Which “shrunken log2 fold change” value did it give?
The value was 0.469.

Which “shrunken log2 fold change” value does the source give for RRIRARPPRLPRPRPRPTNDPRP here?
Its value is 0.297.

For RRIRARPPRLPRPRPRPTNYPRP, which “shrunken log2 fold change” value is on record?
The value was -0.137.

For RRIRARPPRLPRPRPRPTPGPRP, which “shrunken log2 fold change” value is on record?
Its value is 0.826.

How did the “shrunken log2 fold change” value turn out when RRIRARPPRLPRPRPRPTQDPRP was run?
Its value is 0.974.

RRIRARPPRLPRPRPRPTQQPRP was tested. Which “shrunken log2 fold change” value did it give?
Its value is -0.0711.

For RRIRARPPRLPRPRPRPTRLPRP, which “shrunken log2 fold change” value is on record?
The value was 0.545.

For RRIRARPPRLPRPRPRPTRRPRP, which “shrunken log2 fold change” value is on record?
Its value is 1.1.

With RRIRARPPRLPRPRPRPTRSPRP as the sequence, how does the “shrunken log2 fold change” value read?
Its value is 0.258.

Which “shrunken log2 fold change” value does the source give for RRIRARPPRLPRPRPRPTSMPRP here?
Its value is 0.127.

How did the “shrunken log2 fold change” value turn out when RRIRARPPRLPRPRPRPTTLPRP was run?
Its value is 0.067.

Which “shrunken log2 fold change” value does the source give for RRIRARPPRLPRPRPRPTVDPRP here?
The value was 0.732.

With RRIRARPPRLPRPRPRPTVHPRP as the sequence, how does the “shrunken log2 fold change” value read?
The value was 2.45.

Which “shrunken log2 fold change” value does the source give for RRIRARPPRLPRPRPRPTVWPRP here?
Its value is 0.552.

How did the “shrunken log2 fold change” value turn out when RRIRARPPRLPRPRPRPTWEPRP was run?
Its value is 1.02.

How did the “shrunken log2 fold change” value turn out when RRIRARPPRLPRPRPRPTWWPRP was run?
The value was 0.568.

RRIRARPPRLPRPRPRPTYFPRP was tested. Which “shrunken log2 fold change” value did it give?
The value was 0.161.

How did the “shrunken log2 fold change” value turn out when RRIRARPPRLPRPRPRPVADPRP was run?
Its value is 1.44.

With RRIRARPPRLPRPRPRPVAEPRP as the sequence, how does the “shrunken log2 fold change” value read?
Its value is 0.871.

Which “shrunken log2 fold change” value does the source give for RRIRARPPRLPRPRPRPVAYPRP here?
Its value is 0.0127.

With RRIRARPPRLPRPRPRPVDGPRP as the sequence, how does the “shrunken log2 fold change” value read?
The value was 0.381.

With RRIRARPPRLPRPRPRPVELPRP as the sequence, how does the “shrunken log2 fold change” value read?
The value was 0.0828.

With RRIRARPPRLPRPRPRPVFTPRP as the sequence, how does the “shrunken log2 fold change” value read?
The value was -0.0343.

RRIRARPPRLPRPRPRPVHSPRP was tested. Which “shrunken log2 fold change” value did it give?
Its value is 0.0799.

RRIRARPPRLPRPRPRPVIIPRP was tested. Which “shrunken log2 fold change” value did it give?
Its value is -0.104.

With RRIRARPPRLPRPRPRPVIKPRP as the sequence, how does the “shrunken log2 fold change” value read?
The value was -0.136.
